The target of test [1] is EGFL7 coated on plates in the Cell Adhesion Assay (mouse EGFL7 (mEGFL7-CB-His) or human EGFL7 (EGFL7-CB-His)); …. Put plainly: cell-based or functional assay.
Test [2] concerns the target T1, Mouse EGFL7 (mEGFL7-CB-His) (mouse, UniProt Q9QXT5 22-275).
T1 construct: Limits of the construct and the CB(-His) tag are not described; also called murine EGFL7
T1 sequence: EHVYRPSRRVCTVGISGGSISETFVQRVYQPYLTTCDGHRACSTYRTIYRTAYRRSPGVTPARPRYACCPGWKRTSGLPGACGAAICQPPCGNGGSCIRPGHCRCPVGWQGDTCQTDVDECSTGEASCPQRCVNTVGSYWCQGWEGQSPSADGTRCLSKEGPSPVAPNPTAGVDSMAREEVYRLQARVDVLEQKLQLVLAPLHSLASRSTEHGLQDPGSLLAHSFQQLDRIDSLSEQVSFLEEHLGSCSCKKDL
Put plainly: SPR (Biacore) at 37 C, IgG over immobilized mEGFL7-CB.

B1: 4F11.v6, IgG (antibody, V domains shown)
VH: EVQLVESGGGLVQPGGSLRLSCAASGHTFTTYGMSWVRQAPGKGLEWVGWINTHSGVPTYADDFKGRFTISRDNSKNTVYLQMNSLRAEDTAVYYCARLGSSAVDYWGQGTLVTVSS
VL: DIQMTQSPSSLSASVGDRVTITCKASQSVDYDGDSYMSWYQQKPGKAPKLLIYGASYLESGVPSRFSGSGSGTDFTLTISSLQPEDFATYYCQQNNEDPYTFGQGTKVEIK
Take B1: the “Cell Adhesion Assay Variant/ch4F11 (fold)” value in test [1] was determined as 4.01 fold.

B2: 4F11.v10, IgG (antibody, V domains shown)
VH: EVQLVESGGGLVQPGGSLRLSCAASGHTFTTYGMSWVRQAPGKGLEWVGWINTHSGVPTYADDFKGRFTISRDNSKNTVYLQMNSLRAEDTAVYYCARLGSYAVDYWGQGTLVTVSS
VL: DIQMTQSPSSLSASVGDRVTITCKASQSVDYDGDSYMSWYQQKPGKAPKLLIYGASYLESGVPSRFSGSGSGTDFTLTISSLQPEDFATYYCQQNNEDPYTFGQGTKVEIK
For B2, the “Cell Adhesion Assay Variant/ch4F11 (fold)” value in test [1] was 4.38 fold.

B3: hu18F7.v6J, IgG (antibody, V domains shown)
VH: EVQLVESGGGLVQPGGSLRLSCAASGYTFIDYYMNWVRQAPGKGLEWVGDINLDNSGTHYNQKFKGRFTISRDKSKNTAYLQMNSLRAEDTAVYYCAREGVYHDYDDYAMDYWGQGTLVTVSS
VL: DIQMTQSPSSLSASVGDRVTITCRTSQSLVHINSITYLHWYQQKPGKAPKLLIYRVSNRFSGVPSRFSGSGSGTDFTLTISSLQPEDFATYYCGQSTHVPLTFGQGTKVEIK
notes: Variant of 18F7.v6; Expressed as IgG
One may read the Kd as a measure of binding affinity in units of concentration. High values mean lower affinity, low ones higher affinity. Molecule B3 had an equilibrium dissociation constant (Kd) in test [2] of 6.8 nM. This lies in the single-digit nanomolar range.

For the origin of these results see US20130324704A1 (published 2013).
